The target of assay [1] is p43, the major excreted/secreted protein of Trichuris muris (native p43) (Trichuris muris). As to the kind of experiment: native MS; p43 and IL-13 mixed at a ratio of 1.5:1 in 250 mM ammonium acetate, pH 7, 2 h at room temperature; nano-electrospray, collision-induced dissociation of the mass-selected 18+ ion of the complex.
For assay [2] the target is unchanged. Nature of the assay: MST; serial dilution of IL-13 from 2500 nM to 40 pM with 5 nM NHS-647-labeled p43; 20 mM HEPES, 150 mM NaCl, 0.005% Tween-20, pH 7.4; KD model (1:1 stoichiometry); three reactions.

For 1 molecule, stoichiometry N and Kd results are on record in paper PMC6538607.

B1: recombinant murine interleukin-13 (ligand)
chain: APGPVPRSVSLPLTLKELIEELSNITQDQTPLCNGSMVWSVDLAAGGFCVALDSLTNISNCNAIYRTQRILHGLCNRKAPTTVSSLPDTKIEVAHFITKLLSYTKQLFRHGPF
Consider B1, for which the stoichiometry N in assay [1] stood at 1. Moreover, the Kd in assay [2] came out at 420 nM.

What is called stoichiometry N is the number of molecules, sites or subunits per partner or assembly. Broadly, the Kd is the free concentration of one partner at which half of the binding sites on the other are occupied at equilibrium, for simple one-to-one binding. A high value points to lower affinity.
